The series has as its target nucleolin (NCL) (Homo sapiens, UniProt P19338 1-710). In words: SPR; 70 mM KCl; SPR (Biacore X-100, CM5): 10 mM HEPES, 70 mM KCl, pH 7.4, 25 C; analyte 5-500 uM; two-state reaction fit. The following applies: protein: commercial.

Sequence of nucleolin (NCL) (P19338 whole entry): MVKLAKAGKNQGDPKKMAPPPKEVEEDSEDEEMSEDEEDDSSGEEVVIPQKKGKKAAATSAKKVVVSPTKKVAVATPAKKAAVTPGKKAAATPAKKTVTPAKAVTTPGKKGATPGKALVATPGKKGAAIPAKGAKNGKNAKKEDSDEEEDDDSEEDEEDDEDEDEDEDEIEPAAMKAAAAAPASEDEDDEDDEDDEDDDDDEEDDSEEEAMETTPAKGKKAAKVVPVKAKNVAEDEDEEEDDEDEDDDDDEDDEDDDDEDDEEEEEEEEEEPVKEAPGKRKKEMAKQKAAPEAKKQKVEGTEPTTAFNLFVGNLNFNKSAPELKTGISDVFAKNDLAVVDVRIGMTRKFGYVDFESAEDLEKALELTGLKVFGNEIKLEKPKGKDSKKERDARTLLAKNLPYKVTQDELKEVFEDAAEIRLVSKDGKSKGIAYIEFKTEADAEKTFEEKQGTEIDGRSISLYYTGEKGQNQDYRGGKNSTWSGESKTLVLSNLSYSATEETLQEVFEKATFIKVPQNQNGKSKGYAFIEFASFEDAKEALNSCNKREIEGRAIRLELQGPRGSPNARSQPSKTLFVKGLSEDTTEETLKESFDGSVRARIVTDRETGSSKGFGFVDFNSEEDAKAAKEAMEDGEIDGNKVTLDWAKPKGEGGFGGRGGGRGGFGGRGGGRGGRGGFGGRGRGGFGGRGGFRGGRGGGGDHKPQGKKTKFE

B1: TBAG4 (structured_DNA)
DNA: GGGGTTGGGGTGTGGGGTTGGGG
Broadly, the Kd is the free concentration of one partner at which half of the binding sites on the other are occupied at equilibrium, for simple one-to-one binding. A lower Kd goes with higher affinity. Turning to B1, for the setting “antiparallel G4, two extra G-tetrads, intramolecular”, the Kd worked out at 13.5 µM.

B2: TBAG3 (structured_DNA)
DNA: GGGTTGGGTGTGGGTTGGG
The molecule B2 came in with a Kd (G4, one extra G-tetrad, intramolecular) of 1290 µM.

B3: TBA (structured_DNA)
DNA: GGTTGGTGTGGTTGG
B3 registered a dissociation constant Kd (antiparallel G4, intramolecular) of 62.5 µM.
